Source: publication doi:10.1101/2024.02.03.578754 (bioRxiv, 2024)
Where no end group is shown, it is not given here.

Target: Arabidopsis thaliana O-acetylserine sulfhydrylase (OASS) (Arabidopsis thaliana, UniProt P47998 3-322)
Assay: fluorescence polarisation

Chain of Arabidopsis thaliana O-acetylserine sulfhydrylase (OASS) (P47998 3-322): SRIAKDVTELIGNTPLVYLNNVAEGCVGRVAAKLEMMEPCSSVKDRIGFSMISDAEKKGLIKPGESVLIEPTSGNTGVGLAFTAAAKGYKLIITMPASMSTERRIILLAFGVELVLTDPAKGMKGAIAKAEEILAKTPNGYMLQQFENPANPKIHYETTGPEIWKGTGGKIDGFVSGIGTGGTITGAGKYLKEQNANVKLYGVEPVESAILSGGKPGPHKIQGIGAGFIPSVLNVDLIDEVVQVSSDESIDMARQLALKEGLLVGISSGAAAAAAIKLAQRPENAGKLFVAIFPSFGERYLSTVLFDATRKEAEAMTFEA

B1: FITC-labeled SAT-derived peptide YLTEWSDYVI (FITC-SATp) (peptide)
peptide: YLTEWSDYVI
modifications: also: FITC conjugate, position not given here
binding result: binds
